Measured values from the DeepSol protein solubility set.

Test: soluble on expression in E. coli; label from the status in PepcDB or PDB records

| Sequence | soluble on expression in E. coli |
| --- | --- |
| MSILDTEVTLINGEKASMDQWAGHCLLIVNTASECGYTPQLETLEELYEDYAMRGFFVIGVPCNQFGEEEPGKDAQVARRYEEKFGVRFPLLAKSDVNGPNTIELYKKLKGDGPDIEWNFEKFIVAPSGEVVGRFAPSLDPDDMKIINVLEEYLPI | soluble |
| SLGLKAAQKTLFPLRSIDDVVRLFAAELGREEPDLVLLSLVLGFVEHFLAVNRVIPTNVPELTFQPSPAPDPPGGLTYFPVADLSIIAALYARFTAQIRGAVDLSLYPREGGVSSRELVKKVSDVIWNSLSRSYFKDRAHIQSLFSFITGWSPVGTKLDSSGVAFAVVGACQALGLRDVHLALSEDHAWVVFGPNGEQTAEVTWHGKGNEDRRGQTVNAGVAERSWLYLKGSYMRCDRKMEVAFMVCAINPSIDLHTDSLELLQLQQKLLWLLYDLGHLERYPMALGNLADLEELEPTPGRPDPLTLYHKGIASAKTYYRDEHIYPYMYLAGYHCRNRNVREALQAWADTATVIQDYNYCREDEEIYKEFFEVANDVIPNLLKEAASLLEAGEERPGEQSQGTQSQGSALQDPECFAHLLRFYDGICKWEEGSPTPVLHVGWATFLVQSLGRFEGQVRQKVRIVSREAEAAEAEEPWGEEAREGRRRGPRRESKPEEPPPPKKPALDKGLGTGQGAVSGPPRKPPGTVAGTARGPEGGSTAQVPAPAASPPPEGPVLTFQSEKMKGMKELLVATKINSSAIKLQLTAQSQVQMKKQKVSTPSDYTLSFLKRQRKG | soluble |
| MSIQQIIEQKIQKEFQPHFLAIENESHLHHSNRGSESHFKCVIVSADFKNIRKVQRHQRIYQLLNEELNHSIHALALHLFTPEEWKAQNETVPHSTKCAGIGRLEHHHHHH | soluble |
| MGSDKIHHHHHHMDLEEQKKAVIEKLIREGYIKSKRVIDALLKVPREEFLPEHLKEYAYVDTPLEIGYGQTISAIHMVGMMCELLDLKPGMKVLEIGTGCGYHAAVTAEIVGEDGLVVSIERIPELAEKAERTLRKLGYDNVIVIVGDGTLGYEPLAPYDRIYTTAAGPKIPEPLIRQLKDGGKLLMPVGRYLQRLVLAEKRGDEIIIKDCGPVAFVPLVGKEGFQG | not soluble |
| MGKVYIVGAGPGDPDLITVKGLKCIEKADVILYDRLVNKELLSYAKPEADLIYCGKLPNYHTMKQETINTFLIKYAKKGKIVTRLKGGDPFVFGRGGEEAEALAKQGVPFEIVPGISAGIAAPAYAGIPVTHRDASASFAIVTGHRKEDAAEEVKWGNLAKGVETLAVYMGVSNLPYICEQLMKHGKDKSTPAAIIERGTTSMQRTVVGTLGTIVDVAKKEQIQNPSMIVIGEVVRFREKIHWFEKQTESTYQVSGVL | not soluble |
| MSLSELARRLNQCKKPVGDQGKVVVDDMNERHYELTGWGLDKIKIDKAYKMLDIGCGGGRTVNRLSKAAEEGEVYGIDYSSDCVRWASEYNKELIKEGRVHISEASVEKLPFEDNKFDVVTAVETIYFWPNVEENIKEVNRVLKKGGKFIIINEIYDDDKFRERNNEFAKNSNMKIYSPEKLKSLLKNAGYLNVEMEIKEENNWICYVSEKEGHHHHHH | soluble |
| MVMIISTMEPQVSNGPTSNTSNGPSSNNRNCPSPMQTGATTDDSKTNLIVNYLPQNMTQEEFRSLFGSIGEIESCKLVRDKITGQSLGYGFVNYIDPKDAEKAINTLNGLRLQTKTIKVSYARPSSASIRDANLYVSGLPKTMTQKELEQLFSQYGRIITSRILVGQVTGVSRGVGFIRFDKRIEAEEAIKGLNGQKPSGATEPITVKFANNPSQKSSQALLSQLYQSPNRRYPGPLHHQAQRFRLDNLLNMAYGVKRFSPITIDGMTSLVGMNIPGHTGTGWCIFVYNLSPDSDESVLWQLFGPFGAVNNVKVIRDFNTNKCKGFGFVTMTNYDEAAMAITSLNGYRLGDRVLQVSFKTNKAHKS | soluble |
| MIQHLSSDTVVIGGGVVGLTIALTVARRHRSVILLDPEEPGSGASYGNAGTIADYAVLPVGTPDVLRQLPSLMFDRNSPLAIRHMALPSLAPWLARFLRQSLPAPARRNAQAIAALLGSATRSWEDLAVEVEGTALLNRRGCLYAYETPQAARAAETDMTFRRTLGVTVELLSAAEFAAMEPSLPPMAGAAYFPKAIFLSDPGRMVALIAEAARKAGVQIVKARATGLERRVDGVIVSGRALQIHGRRAVIAAGAHSRALALCAGDRVPLDTERGYHVEWDMAQPPLTRPTCPTARGFYLCPMAGRLRVAGTVELGGLTARPSPHRIARLVAGARAIFPHLPEPTRSWMGFRPSMPDSLPVIGPSAAGPEILHAYGHGHIGLTLAPITARIVADLLDAKTPELDIAPYLPTRFLEHHHHHH | not soluble |
| MSQHAFSPDENVHLSPKGWYRQASEKPGFIHDAAQAAAIEQLDRLWHELVDFKSKRNRFLGRSLRSPQVPRGLYFWGGVGRGKSFLMDAFYACVPYRRKRRIHFHHFMAETHRELRKFAGGKDPLLAYADQIAKATRLLCFDEFHVSDIADAMILGRLLSALLERGVVVVTTSNYAPDDLYPGGLQRQNFLPTIELIKRELDVLNVDGGHDYRLRELTREPLFMVPADAANEGKMEQLFRRVSTGAELAQKSITVLEREIAVKRMSPGVIWFDFMALCDGPRAQTDYLEIASEYHTVFLSGIPRLSAKQASIARRFTWLVDVFYDNRVKLIASADAPPEAIYTEGLQSGEFFRTASRLTEMQSKSYLELPHQSMTQSHDQPPPGVALLEHHHHHH | not soluble |
| MKAEYLQRFGGIARLYGQSALRSFSQAKVCVVGIGGVGSWAAEALARAGINQITLIDMDDICITNTNRQIHAMQGTVGRLKTEVMAERIRAINPDCEVIEVDDFVTADNLAEHIKREFDYVVDAIDSVKAKVALIAFCKRNKIPVIVAGGAGGQMDPTQITVADLAKTIQDPLAAKVRSDLRRLHNFSKNPARKFGVECVFSTEQLSYPDGNGGTCQAKAASDGNMKMDCASGFGAVTPVTATFGLVAASRVLKKIAERGARAEKEAGNEEAGSIGEA | soluble |
| MNKRNWTAYYNSTKQNTLPRKSLLKAIANFDKEKINLSKSAIDLGCGAGIDVMELLRCGWSVIAIDSQLSAIDSLLSSAQELTCANKLKTIISSFEALDSLPKVNLINASFSLPFLKPVYFYKFWSVILKGLKPGGRFSGSFFGFNDFWNTRTDMTFLNREMICHLFSQFKIEYFQEEEKDEMDALGYYKHWHKFFIVAKKIALEHHHHHH | not soluble |
| SLKPFQDKNTFFYKSPSYICDSEISVACKKGKKVDFPNQDDFTIIQTNDWILIMVFDGHGPSGHDISNFVHVVLPLLFSYNIEKIYENPVRTMKTLFYMINCYLVNYSYCINNNINPININFIDYNLSGTTCTIILYNFITKKIYSAHTGDSRAVMGKQNPQTNKFSAYNITEDHKPSLKLEKDRILAFGGEVKKLHGDVAYRVFVKDEMYPGLAMSRAIGDITSSFIGVTCEPTIKILDKLEEDKFIIVATDGIWEFISSEECVQMVSKKKKKKVHIAMEEIIKESWRRWARIDTVDDMTLVILYF | not soluble |
| MASMNDFIGRWKLVQTENFDEYMKEIGVGLITRKAAAHLKPILEIRLDGETWNFDQFSTFKNTKLSFKLGEEFVENSPDDRTYNSLFTFENGKLTHRQNKIKENHKSSVLTTWLENGKLIQTYQSGDVICRREWERE | not soluble |
| DIQMTQTTSSLSASLGDRVTISCSASQDISSYLNWYQQKPEGTVKLLIYYTSSLHSGVPSAFSGSGSGTDYSLTISNLEPEDFATYYCQQYSKFPWTFGGGTKLEIKRADAAPTVSIFPPSSEQLTSGGASVVCFLNNFYPKDINVAWAIDGSAAANGVLNSWTDQDSKDSTYSMSSTLTLTADAYEAANSYTCAATHKTSTSPIVKSFNANEC | soluble |
| MGSDKIHHHHHHMFLEKLVEMARGKGKKLAVAAANDDHVIEAVYRAWRERVCEPVLFGPEEEITRIIEELVPEWKNPQIIDCPPEEAGRLAVEAVSKGECDFLMKGKIKTGDLMKIYLDERYGLRTGKTMAMVSVMEIPDFPRPLIISDPGMLISPTLEQKVDMIEHCVRVANVMGLETPKVAVVGAIEVVNPKMPITMEAAILSKMNQRGQIKGCIVDGPFALDNVVSEEAAKKKGIQSPVAGKADILILPDIEAANILYKALVFLAKAKSASTILGGKVPVVLTSRADSEETKFYSIALSAVFA | not soluble |
| MGSDKIHHHHHHMKMKGIESLKEIFKYGAFSLPVANYLLCEGNIPGDCKRILDVLKLAWKGNFKEAIRRADKAVENSRSETAKYFLLANKLAFLKYTGKTDVNLYRYLKRNLPKMSKSIRDTVIVTLINFEASGIKPLRKVRVWKNDYRKSTLSFLYLSLARREADSGRLSEAVHDYIQAYRLSREVPHPTCIVSSLNDLAWDIREKHPKLAHALSQGAVFWLGYYREEPGNLFGALDTLFVVEKDMDSPSIHSTAHIIVSLPVPEDYLSLLKKAKKFVLDYTGSTYPNTSQLRRYVEKVAWKGKTLSSKGISDILKGKTKMIRADTIRKLLTSGVDTGAPFPVWNEWIKMEIERKYRESSEKLKELPFHQRQILFLTTYMALLDREFLSRKEKLKKAYTLLEDIESFADFMAKDHRTMEFVVSMVKAHPFVEGRKEAVKRALARMKRKRLERFVLRYIEMKESDRKLLDRFLRNYGRYDGVRFGIRLKGPEVVREFAKKYSLKVQPLFAAFWCEEDGRVRRRLERVLKHMVLYNLIEIAILFVMVEK | not soluble |
| MPNFWALPPEINSTRIYLGPGSGPILAAAQGWNALASELEKTKVGLQSALDTLLESYRGQSSQALIQQTLPYVQWLTTTAEHAHKTAIQLTAAANAYEQARAAMVPPAMVRANRVQTTVLKAINWFGQFSTRIADKEADYEQMWFQDALVMENYWEAVQEAIQSTSHFEDPPEMADDYDEAWMLNTVFDYHNENAKEEVIHLVPDVNKERGPIELVTKVDKEGTIRLVYDGEPTFSYKEHPKF | not soluble |
| MEFTDIAMELSKKAWQASFHHPFILQLQEGNLEPAIFRYYLIQDAYYLKAFSEIYHLLADKTSNQEMKRLLKQNAQGLVEGELFIRQQFFKELEISDQEMEQHPIAPTCYHYISHIYRQFAEPNLAIAFASLLPCPWLYHDIGKSLNLKPSPNPLYQQWIETYITDELEQQIREEGALVNQLYRESDETDKQKMLDAFHISVHMEAKFWEMAYQHQTWKSDLQSLEKGEEMAGDPLEHHHHHH | soluble |
| MVKSIENVKLTKGLFYNSQKKGNDVILALDIDRLLAPYYEAANLPPKKRSYGGWEEREIRGHSLGHWLSAAAAMYETTGDKALLERIDRAVQELATIQDDVGYVGGVKRAHFDEMFSGEFQVGHFNIAGTWVPWYNLHKLFAGLIDVHQLTGHSLALTVVTKLADWAKKGTDQLTDDQFQRMLICEHGGMNEAMADLYTLTGHKDYLQLAIRFCHWAVLEPLANGIDELEGKHANTQIPKVIGAAKLFEITGDDTYRAIAEFFWRQVTNDRSYIIGGNSNSEHFGPANKETLGVETAETCNTYNMLKLTEHLFRWNRSSQLMDYYEKALYNHILASQDPDSGMKTYFVSLQPGHFKVYSSLEESFWCCFGTGLENPARYTRTIYDRDDRHIYVNLFMASEIHLKDLQVQIRQETNFPETDRTKLTFVKADGVSIKLHIRVPEWVAGPVTARINGKETFSESGADYLTIEREWQKGDEIEVHLPMELRIYEAKDDSHKVGIMYGPIVLAGTFGKDHFPLEHHHHHH | not soluble |
